From the RNAGym collection of RNA variant scans (doi:10.7554/elife.80360)

B1: HDV Ribozyme (parent)
chain: GGCCGGCAUGGUCCCAGCCUCCUCGCUGGCGCCGGCUGGGCAACAUUCCGAGGGGACCGUCCCCUCGGUAAUGGCGAAUGGGACCCA

Variants of: B1
Assay: self-cleavage, relative activity (ratio to wild type); higher = more cleavage; co-transcriptional

Row | Variant | self-cleavage
1 | GGCCGGCAUGGUCCCAGCCUCCUCGCUGGCGCCGGCUGGGCAACAUUCCCAAGGGACCGUCCCCUCGGUAAUGGCGAAUGGGACCCA [G50C G52A] | 0.66
2 | GGCCGGCAUGGUCCCAGCCUCCUCGCUGGCGCCGGCUGGGCAACAUUCCCAUGGGACCGUCCCCUCGGUAAUGGCGAAUGGGACCCA [G50C G52U] | 0.554
3 | GGCCGGCAUGGUCCCAGCCUCCUCGCUGGCGCCGGCUGGGCAACAUUCCCACGGGACCGUCCCCUCGGUAAUGGCGAAUGGGACCCA [G50C G52C] | 0.554
4 | GGCCGGCAUGGUCCCAGCCUCCUCGCUGGCGCCGGCUGGGCAACAUUCCUAGGGGACCGUCCCCUAGGUAAUGGCGAAUGGGACCCA [G50U C66A] | 0.901
5 | GGCCGGCAUGGUCCCAGCCUCCUCGCUGGCGCCGGCUGGGCAACAUUCCUAGGGGAACGUCCCCUCGGUAAUGGCGAAUGGGACCCA [G50U C57A] | 0.911
6 | GGCCGGCAUGGUCCCAGCCUCCUCGCUGGCGCCGGCUGGGCAACAUUCCUAGGGGAGCGUCCCCUCGGUAAUGGCGAAUGGGACCCA [G50U C57G] | 0.986
7 | GGCCGGCAUGGUCCCAGCCUCCUCGCUGGCGCCGGCUGGGCAACAUUCCUAGGGGAUCGUCCCCUCGGUAAUGGCGAAUGGGACCCA [G50U C57U] | 1.17
8 | GGCCGGCAUGGUCCCAGCCUCCUCGCUGGCGCCGGCUGGGCAACAUUCCCAGGGGACCGUCCCCUCGGUAAUGGCCAAUGGGACCCA [G50C G76C] | 1.08
9 | GGCCGGCAUGGUCCCAGCCUCCUCGCUGGCGCCGGCUGGGCAACAUUCCCAGGGGACCGUCCCCUCGGUAAUGGCAAAUGGGACCCA [G50C G76A] | 0.915
10 | GGCCGGCAUGGUCCCAGCCUCCUCGCUGGCGCCGGCUGGGCAACAUUCCCAGGGGACCGUCCCUUCGGUAAUGGCGAAUGGGACCCA [G50C C64U] | 0.728
11 | GGCCGGCAUGGUCCCAGCCUCCUCGCUGGCGCCGGCUGGGCAACAUUCCUAGGGGACCGUCCCCUCGGUAAUGGCGAAUGGGACCCU [G50U A87U] | 0.85
12 | GGCCGGCAUGGUCCCAGCCUCCUCGCUGGCGCCGGCUGGGCAACAUUCCUAGGGGACCGUCCCCUCGGUAAUGGCGAAUGGGACCCG [G50U A87G] | 0.927
13 | GGCCGGCAUGGUCCCAGCCUCCUCGCUGGCGCCGGCUGGGCAACAUUCCCAGGGGACCGUCCCCUCGGUAAUCGCGAAUGGGACCCA [G50C G73C] | 0.601
14 | GGCCGGCAUGGUCCCAGCCUCCUCGCUGGCGCCGGCUGGGCAACAUUCCCAGGGGACCGUCCCCUCGGUAAUUGCGAAUGGGACCCA [G50C G73U] | 0.246
15 | GGCCGGCAUGGUCCCAGCCUCCUCGCUGGCGCCGGCUGGGCAACAUUCCUAGGGGACCGUCCACUCGGUAAUGGCGAAUGGGACCCA [G50U C63A] | 0.57
16 | GGCCGGCAUGGUCCCAGCCUCCUCGCUGGCGCCGGCUGGGCAACAUUCCCAGGGGACCGUCCCCUCGGUAAUGGCGAAUGGGACCUA [G50C C86U] | 0.748
17 | GGCCGGCAUGGUCCCAGCCUCCUCGCUGGCGCCGGCUGGGCAACAUUCCCAGGGGACCGUCCCCUCGGUAAUGGCGAAUGGGACCGA [G50C C86G] | 0.944
18 | GGCCGGCAUGGUCCCAGCCUCCUCGCUGGCGCCGGCUGGGCAACAUUCCCAGGGGACCGUCCCCUCGGUAAUGGCGAAUGGGACCAA [G50C C86A] | 0.929
19 | GGCCGGCAUGGUCCCAGCCUCCUCGCUGGCGCCGGCUGGGCAACAUUCCCAGGAGACCGUCCCCUCGGUAAUGGCGAAUGGGACCCA [G50C G54A] | 0.369
20 | GGCCGGCAUGGUCCCAGCCUCCUCGCUGGCGCCGGCUGGGCAACAUUCCUAGGGGACCGUCCCUUCGGUAAUGGCGAAUGGGACCCA [G50U C64U] | 0.901
21 | GGCCGGCAUGGUCCCAGCCUCCUCGCUGGCGCCGGCUGGGCAACAUUCCUAGGGGACCGUCCCAUCGGUAAUGGCGAAUGGGACCCA [G50U C64A] | 0.468
22 | GGCCGGCAUGGUCCCAGCCUCCUCGCUGGCGCCGGCUGGGCAACAUUCCCAGGGGACCGUCCCCUCGAUAAUGGCGAAUGGGACCCA [G50C G68A] | 0.563

Row | Variant | self-cleavage
23 | GGCCGGCAUGGUCCCAGCCUCCUCGCUGGCGCCGGCUGGGCAACAUUCCUAGGGGACCGUCCCCUCGGUGAUGGCGAAUGGGACCCA [G50U A70G] | 0.846
24 | GGCCGGCAUGGUCCCAGCCUCCUCGCUGGCGCCGGCUGGGCAACAUUCCUAGGGGACCGUCCCCUCGGUCAUGGCGAAUGGGACCCA [G50U A70C] | 0.795
25 | GGCCGGCAUGGUCCCAGCCUCCUCGCUGGCGCCGGCUGGGCAACAUUCCUAGGGGACCGUCCCCUCGGUAAUGGCGACUGGGACCCA [G50U A78C] | 0.373
26 | GGCCGGCAUGGUCCCAGCCUCCUCGCUGGCGCCGGCUGGGCAACAUUCCUAGGGGACCGUCCCCUCGGUAAUGGCGAGUGGGACCCA [G50U A78G] | 0.776
27 | GGCCGGCAUGGUCCCAGCCUCCUCGCUGGCGCCGGCUGGGCAACAUUCCUAGGGGACGGUCCCCUCGGUAAUGGCGAAUGGGACCCA [G50U C58G] | 0.89
28 | GGCCGGCAUGGUCCCAGCCUCCUCGCUGGCGCCGGCUGGGCAACAUUCCUAGGGGACAGUCCCCUCGGUAAUGGCGAAUGGGACCCA [G50U C58A] | 0.997
29 | GGCCGGCAUGGUCCCAGCCUCCUCGCUGGCGCCGGCUGGGCAACAUUCCCAGGGGACCGUCCCCUCGGUAAUGGCGAAUGAGACCCA [G50C G81A] | 0.443
30 | GGCCGGCAUGGUCCCAGCCUCCUCGCUGGCGCCGGCUGGGCAACAUUCCUAGGGGACCGUCCCCUCGGUAGUGGCGAAUGGGACCCA [G50U A71G] | 0.78
31 | GGCCGGCAUGGUCCCAGCCUCCUCGCUGGCGCCGGCUGGGCAACAUUCCUAGGGGACCGUCCCCUCGGUACUGGCGAAUGGGACCCA [G50U A71C] | 0.435
32 | GGCCGGCAUGGUCCCAGCCUCCUCGCUGGCGCCGGCUGGGCAACAUUCCUAGGGGACCGUCCCCUCGGUAAUGGCGAAUGGGCCCCA [G50U A83C] | 0.375
33 | GGCCGGCAUGGUCCCAGCCUCCUCGCUGGCGCCGGCUGGGCAACAUUCCCAGGGGACCGUCCCCUCGGUAAUGCCGAAUGGGACCCA [G50C G74C] | 0.196
34 | GGCCGGCAUGGUCCCAGCCUCCUCGCUGGCGCCGGCUGGGCAACAUUCCCAGGGGACCCUCCCCUCGGUAAUGGCGAAUGGGACCCA [G50C G59C] | 1.16
35 | GGCCGGCAUGGUCCCAGCCUCCUCGCUGGCGCCGGCUGGGCAACAUUCCCAGGGGACCUUCCCCUCGGUAAUGGCGAAUGGGACCCA [G50C G59U] | 0.932
36 | GGCCGGCAUGGUCCCAGCCUCCUCGCUGGCGCCGGCUGGGCAACAUUCCCAGGGGACCGUCCCCUCGGUAAUGGCGAAAGGGACCCA [G50C U79A] | 0.739
37 | GGCCGGCAUGGUCCCAGCCUCCUCGCUGGCGCCGGCUGGGCAACAUUCCCAGGGGACCGUCCCCUCGGUAAUGGCGAACGGGACCCA [G50C U79C] | 0.554
38 | GGCCGGCAUGGUCCCAGCCUCCUCGCUGGCGCCGGCUGGGCAACAUUCCCAGGGGACCGUCCCCUCGGUAAUGGCGAAGGGGACCCA [G50C U79G] | 0.723
39 | GGCCGGCAUGGUCCCAGCCUCCUCGCUGGCGCCGGCUGGGCAACAUUCCUAGGGGACCGUCUCCUCGGUAAUGGCGAAUGGGACCCA [G50U C62U] | 0.95
40 | GGCCGGCAUGGUCCCAGCCUCCUCGCUGGCGCCGGCUGGGCAACAUUCCUAGGGGACCGUCACCUCGGUAAUGGCGAAUGGGACCCA [G50U C62A] | 0.602
41 | GGCCGGCAUGGUCCCAGCCUCCUCGCUGGCGCCGGCUGGGCAACAUUCCUAGGGGACCGUCGCCUCGGUAAUGGCGAAUGGGACCCA [G50U C62G] | 0.344
42 | GGCCGGCAUGGUCCCAGCCUCCUCGCUGGCGCCGGCUGGGCAACAUUCCCAGGGGACCGUCCCCUCAGUAAUGGCGAAUGGGACCCA [G50C G67A] | 0.565
43 | GGCCGGCAUGGUCCCAGCCUCCUCGCUGGCGCCGGCUGGGCAACAUUCCCAGGGGACCGUCCCCUCCGUAAUGGCGAAUGGGACCCA [G50C G67C] | 0.399
44 | GGCCGGCAUGGUCCCAGCCUCCUCGCUGGCGCCGGCUGGGCAACAUUCCCAGGGGACCGUCCCCUCUGUAAUGGCGAAUGGGACCCA [G50C G67U] | 0.795

Row | Variant | self-cleavage
45 | GGCCGGCAUGGUCCCAGCCUCCUCGCUGGCGCCGGCUGGGCAACAUUCCCAGGGGACCGUCCCCUGGGUAAUGGCGAAUGGGACCCA [G50C C66G] | 0.912
46 | GGCCGGCAUGGUCCCAGCCUCCUCGCUGGCGCCGGCUGGGCAACAUUCCCAGGGGACCGUCCCCUCGGUAAUGGCGAAUGGGAUCCA [G50C C84U] | 0.554
47 | GGCCGGCAUGGUCCCAGCCUCCUCGCUGGCGCCGGCUGGGCAACAUUCCUGGGGGACCGUCCCCUCGGUAAUGGCGAAUGGGACCCA [G50U A51G] | 0.956
48 | GGCCGGCAUGGUCCCAGCCUCCUCGCUGGCGCCGGCUGGGCAACAUUCCCAGGGGACCGUCCCCUCGGUAAUGGCGAAUCGGACCCA [G50C G80C] | 0.0906
49 | GGCCGGCAUGGUCCCAGCCUCCUCGCUGGCGCCGGCUGGGCAACAUUCCCAGGGGACCGUCCCCUCGGUAAUGGCGAAUUGGACCCA [G50C G80U] | 0.225
50 | GGCCGGCAUGGUCCCAGCCUCCUCGCUGGCGCCGGCUGGGCAACAUUCCCAGGGGACCGUCCCCUCGGUAAUGGGGAAUGGGACCCA [G50C C75G] | 0
51 | GGCCGGCAUGGUCCCAGCCUCCUCGCUGGCGCCGGCUGGGCAACAUUCCCAGGGGACCGUCCCCUCGGUAAUGGAGAAUGGGACCCA [G50C C75A] | 0.242
52 | GGCCGGCAUGGUCCCAGCCUCCUCGCUGGCGCCGGCUGGGCAACAUUCCCAGGGGACCGUCCCCUCGGUAAUGGUGAAUGGGACCCA [G50C C75U] | 0.162
53 | GGCCGGCAUGGUCCCAGCCUCCUCGCUGGCGCCGGCUGGGCAACAUUCCCAGGGGACCGCCCCCUCGGUAAUGGCGAAUGGGACCCA [G50C U60C] | 1.13
54 | GGCCGGCAUGGUCCCAGCCUCCUCGCUGGCGCCGGCUGGGCAACAUUCCUAGGGGACCGUCCCCUCGGUAAUGGCGGAUGGGACCCA [G50U A77G] | 0.639
55 | GGCCGGCAUGGUCCCAGCCUCCUCGCUGGCGCCGGCUGGGCAACAUUCCUAGGGGACCGUACCCUCGGUAAUGGCGAAUGGGACCCA [G50U C61A] | 0.986
56 | GGCCGGCAUGGUCCCAGCCUCCUCGCUGGCGCCGGCUGGGCAACAUUCCUAGGGGACCGUGCCCUCGGUAAUGGCGAAUGGGACCCA [G50U C61G] | 0.67
57 | GGCCGGCAUGGUCCCAGCCUCCUCGCUGGCGCCGGCUGGGCAACAUUCCUAGGGGACCGUUCCCUCGGUAAUGGCGAAUGGGACCCA [G50U C61U] | 0.59
58 | GGCCGGCAUGGUCCCAGCCUCCUCGCUGGCGCCGGCUGGGCAACAUUCCCAGCGGACCGUCCCCUCGGUAAUGGCGAAUGGGACCCA [G50C G53C] | 0.18
59 | GGCCGGCAUGGUCCCAGCCUCCUCGCUGGCGCCGGCUGGGCAACAUUCCCAGGGGACCGUCCCCUCGGCAAUGGCGAAUGGGACCCA [G50C U69C] | 1.07
60 | GGCCGGCAUGGUCCCAGCCUCCUCGCUGGCGCCGGCUGGGCAACAUUCCUAGGGGGCCGUCCCCUCGGUAAUGGCGAAUGGGACCCA [G50U A56G] | 0.943
61 | GGCCGGCAUGGUCCCAGCCUCCUCGCUGGCGCCGGCUGGGCAACAUUCCUAGGGGCCCGUCCCCUCGGUAAUGGCGAAUGGGACCCA [G50U A56C] | 1.18
62 | GGCCGGCAUGGUCCCAGCCUCCUCGCUGGCGCCGGCUGGGCAACAUUCCUAGGGGUCCGUCCCCUCGGUAAUGGCGAAUGGGACCCA [G50U A56U] | 1.06
63 | GGCCGGCAUGGUCCCAGCCUCCUCGCUGGCGCCGGCUGGGCAACAUUCCCAGGGGACCGUCCCCUCGGUAAGGGCGAAUGGGACCCA [G50C U72G] | 0.415
64 | GGCCGGCAUGGUCCCAGCCUCCUCGCUGGCGCCGGCUGGGCAACAUUCCCAGGGGACCGUCCCCUCGGUAAUGGCGAAUGGGACACA [G50C C85A] | 0.933
